Data taken from US20200141935A1, “SYSTEM, METHOD, APPARATUS AND DIAGNOSTIC TEST FOR PREGNANCY” (BARCELONA INSTITUTE FOR GLOBAL HEALTH, priority 2017, published 2020).

Tests used:
P. falciparum = experiment: Prevalence of infection by qPCR at delivery by intermittent preventive treatment group; assay type: in vivo, pregnant women; conditions: for PCR prevalence of infection (%): by IPTp group
Description: All women included in the study received bed nets treated with long-lasting insecticide. At delivery, HIV serostatus was assessed using a rapid diagnostic test and hemoglobin was determined in capillary blood sample using mobile devices (HemoCue, Hemocontrol and Sysmex KX analyzer). Tissue samples from the maternal side of the placenta, as well as maternal peripheral-, placental-blood samples were collected at delivery. Dried blood spots onto filter paper were prepared (50 ul) and blood was collected into EDTA vacutainers and centrifuged, with the plasma stored at −20° C. […] Clinical malaria episodes were treated according to national guidelines at the time of the study. Biases due to pooling of data from these two clinical trials were minimized by the use of similar protocols and procedures during the two trials. […] P. falciparum infection at delivery was defined if peripheral or placental blood samples were positive by microscopy or qPCR or if histology positive (active or chronic). Infection during pregnancy was defined if peripheral or placental blood samples were positive by microscopy or qPCR at any time-point of collection, if P. falciparum detected by hospital passive case detection (PCD), or if histology positive (active, chronic or past) on the sub-set of women from longitudinal cohort. Seroprevalences between countries (Benin, Gabon and Mozambique for HIV-uninfected and Kenya and Mozambique for HIV-infected), between IPTp intervention group (MQ vs SP for HIV-uninfected and MQ vs Placebo for HIV infected) and anemia status were compared by logistic regression models adjusted by parity, age and treatment.

IgG [1] = experiment: Multiplex bead-based immunoassay (Luminex): IgG levels (nMFI) against antigens, compared between groups; assay type: binding, pregnant women
Description: (§1) Two multiplex suspension array panels were constructed to quantify IgG responses against P. falciparum recombinant proteins and synthetic peptides, using the xMAP™ technology and the Luminex® 100/200™ System (Luminex® Corp., Austin, Tex.). MagPlex® microspheres (magnetic carboxylated polystyrene microparticles, 5.6 μm) with different spectral signatures were selected for each protein (DBL3X, DBL5ϵ, DBL6ϵ, AMA1 and MSP119), peptides (25 VAR2CSA peptides and pCSP), tetanus toxin and bovine serum albumin (BSA). Antigens were covalently coupled to beads following a modification of the Luminex® Corporation protocol. Protein and peptide multiplex arrays were prepared by pooling together equal volumes of coated beads. Plasma samples or the product of DBS elution were analyzed in duplicate at dilution 1:400 for the protein array and 1:100 for the peptide array. A hyperimmune plasma pool composed by 23 plasmas from malaria infected Mozambican pregnant women (HIP-VAR2CSA) was included in each assay plate, in addition to blanks (wells without sample) to assess background levels. A minimum of 50 microspheres were read per spectral signature and results were exported as crude median fluorescent intensity ([…]). Duplicates were averaged and background MFIs were subtracted. A total of 224 plates were analyzed and the intra-assay variation (mean CV of replicates from 20 plasma samples per plate) ranged from 1.4% to 7.3% for the protein array and from 2.5% to 12.4% for the peptide array. The inter-assay variation (variability of positive pool [HIP-VAR2CSA] between 224 plates) was 5% for the protein array and 26% for the peptide array. Results were normalized (nMFI) to account for plate-to-plate variation by […] the background subtracted MFI of each sample with the value of the positive pool in the same plate and dividing by the median of positive pools in all plates.
(§2) Antibodies were eluted from DBS from Gabon, […] and Kenya, as previously described. Briefly, to achieve a concentration of eluted blood proteins equivalent to a 1:50 plasma dilution antibodies were eluted from four spots of approximately 3 mm in diameter with 200 μl Luminex® assay buffer (1% BSA, 0.05% sodium azide in filtrated PBS [Phosphate-buffered saline]). […]. Controls blood drops were artificially prepared using fresh erythrocytes (blood type 0, assuming a hematocrit approximately of 50%) and freeze plasma from 49 Spanish pregnant women. Filter papers were stored avoiding humidity at −20° C. in Barcelona.
(§3) Presence or absence of antibodies was defined by finite mixture models (FMM) for pregnancy-specific antigens (VAR2CSA peptides and recombinant domains) and by the mean plus 3 standard deviation (SD) of IgG response from pregnant women from Barcelona for general malaria antigens (AMA1, MSP119, and pCSP).
(§4) Data was fitted to a normal distribution by logarithmic transformation of nMFIs. Participant's baseline characteristics and parasitological outcomes were compared between study times and areas by univariate analysis (Fisher's tests for binary outcomes or t-Student test for continuous outcomes). Responses were considered not restricted to malaria when seroprevalences were 5% or high among Spanish pregnant women.
Linear regression models were used to compare antibody levels from Mozambican and Spanish pregnant women. The capacity of antibody levels to mimic malaria trends in Mozambique was analyzed by linear regression models (2010 was compared with 2003-2005 corresponding to a trend of malaria decrease and 2011-2012 with 2010 to a trend of increase) adjusted by treatment, parity, age and HIV.
The impact of P. falciparum infection during pregnancy on antibodies at delivery was assessed in linear regression models adjusted by age, parity, HIV and treatment. Changes in antibody levels due to parasite density (below or above 200) were assessed by linear regression models adjusted by age, parity, HIV and treatment. […]

IgG [2] = experiment: Multiplex bead-based immunoassay: seroprevalence (finite mixture models or negative control cutoff); assay type: binding, pregnant women; conditions: for Seroprevalence MQ (%): IPTp with mefloquine; for Seroprevalence Non-A (%): non anemia
Description: as §1, §2, §3, §4
Seroprevalences between countries (Benin, Gabon and Mozambique for HIV-uninfected and Kenya and Mozambique for HIV-infected), between IPTp intervention group (MQ vs SP for HIV-uninfected and MQ vs Placebo for HIV infected) and anemia status were compared by logistic regression models adjusted by parity, age and treatment.
The modification of the associations by HIV infection or parity was assessed by including interaction terms into the regression models.

IgG [3] = experiment: Antibody dynamics during pregnancy (time to double, half-life, sero-reversion) from bead-based immunoassay; assay type: binding, pregnant Mozambican women
Description: as §1
The adjusted effect of infection on antibody levels was analyzed using log-linear mixed-effects regression models incorporating Gaussian random intercepts. […] Time to double the antibody levels (T2x) and half-lives were calculated in weeks from the estimated rates and the boundaries at 95% confidence interval obtained from mixed-effects models for subjects suffering a P. falciparum infection at follow-up independent of antibody status at recruitment (Ab[−or+]/Pf+) and subjects seropositive at recruitment and no infection detected on follow-up (Ab+/Pf−), respectively. In situations that the increase rate is a negative value (rate below 1) or the decay rate is a positive value (rate above 1), the calculated T2x or half-life was reported as infinity. Similarly, the time to sero-reversion was calculated for these subjects using the ratio of the seropositivity cutoff by the average antibody titers at recruitment as decay, i.e. how many times the average titers need to be reduced to be equal the cutoff.

[4] = HIV uninfected, qPCR in peripheral and placental blood at delivery

## OC(c1cc(C(F)(F)F)nc2c(C(F)(F)F)cccc12)C1CCCCN1 (stereo not drawn) [MQ, mefloquine]
P. falciparum; HIV infected, MQ with Placebo as reference
  PCR MQ (OR): 0.24 (0.10; 0.59)
P. falciparum; HIV infected, qPCR at delivery
  PCR prevalence of infection (%): 2%
P. falciparum; [4]
  PCR prevalence of infection (%): 18%

## sulfadoxine-pyrimethamine [SP]
P. falciparum; HIV uninfected, SP with MQ as reference
  PCR SP (OR): 1.93 (1.28; 2.91)
P. falciparum; [4]
  PCR prevalence of infection (%): 27%

B1: AMA1: recombinant apical membrane antigen 1, from 3D7 strain (protein)
chain: QNYWEHPYQNSDVYRPINEHREHPKEYEYPLHQEHTYQQEDSGEDENTLQHAYPIDHEGAEPAPQEQNLFSSIEIVERSNYMGNPWTEYMAKYDIEEVHGSGIRVDLGEDAEVAGTQYRLPSGKCPVFGKGIIIENSNTTFLTPVATGNQYLKDGGFAFPPTEPLMSPMTLDEMRHFYKDNKYVKNLDELTLCSRHAGNMIPDNDKNSNYKYPAVYDDKDKKCHILYIAAQENNGPRYCNKDESKRNSMFCFRPAKDISFQNYTYLSKNVVDNWEKVCPRKNLQNAKFGLWVDGNCEDIPHVNEFPAIDLFECNKLVFELSASDQPKQYEQHLTDYEKIKEGFKNKNASMIKSAFLPTGAFKADRYKSHGKGYNWGNYNTETQKCEIFNVKPTCLINNSSYIATTALSHPIEVENNFPCSLYKDEIMKEIERESKRIKLNDNDDEGNKKIIAPRIFISDDKDSLKCPCDPEMVSNSTCRFFVCKCVERRAEVTSNNEVVVKEEYKDEYADIPEHKPTYDKMK
IgG [1]; 641 pregnant Mozambican women 2003-2012, mean nMFI above mean BSA nMFI plus 3 SD
  Immunoreactivity: recognition by IgGs at levels above BSA recognition: above BSA recognition
IgG [1]; nMFI at delivery, Mozambican women followed 2011-2012, adjusted
  Infection during pregnacy Infection vs no-infection ratio (95% CI): 1.8 (1.30; 2.50)
IgG [1]; nMFI at delivery, multigravid vs primigravid Mozambican women, adjusted
  Parity MG vs PG ratio (95% CI): 1.2 (0.76; 1.9)
IgG [1]; nMFI ratio at delivery, Mozambique, adjusted by parity, age, treatment and HIV
  Exposure dependence Increase 2011-2012 vs 2010 Ratio (95% CI): 0.88 (0.73; 1.07)
IgG [1]; nMFI ratio, pregnant Mozambican women vs pregnant Spanish women (N=49)
  PW Mz vs PW Bcn Ratio (95% CI): 24.51 (18.53; 32.43)
IgG [1]; nMFI ratio, below or above 200 genomes per microliter, adjusted
  Parasite density Low vs High ratio (95% CI): 1.18 (0.96; 1.46)
IgG [2]; 239 pregnant Mozambican women followed 2011-2012
  SeroPrev Delivery %: 89%
IgG [2]; HIV infected
  Seroprevalence MQ (%): 92%
  Seroprevalence Non-A (%): 94%
IgG [2]; HIV infected, Kenya, at delivery
  Seroprevalence K (%): 95%
IgG [2]; HIV infected, MQ, Placebo as reference
  MQ (OR): 0.6 (0.32; 1.12)
IgG [2]; HIV infected, Mozambique, Kenya as reference
  M (OR): 0.76 (0.40; 1.45)
IgG [2]; HIV infected, Mozambique, at delivery
  Seroprevalence M (%): 93%
IgG [2]; HIV infected, Placebo group
  Seroprevalence PL (%): 95%
IgG [2]; HIV infected, anemia
  Seroprevalence A (%): 92%
IgG [2]; HIV infected, anemia, Non-A as reference
  A (OR): 0.79 (0.41; 1.51)
IgG [2]; HIV uninfected, Benin, at delivery
  Seroprevalence B (%): 100%
IgG [2]; HIV uninfected, Gabon, at delivery
  Seroprevalence G (%): 82%
IgG [2]; HIV uninfected
  Seroprevalence MQ (%): 96%
  Seroprevalence Non-A (%): 96%
IgG [2]; HIV uninfected, IPTp with sulfadoxine-pyrimethamine
  Seroprevalence SP (%): 96%
IgG [2]; HIV uninfected, Mozambique, at delivery
  Seroprevalence M (%): 93%
IgG [2]; HIV uninfected, anemia
  Seroprevalence A (%): 96%
IgG [2]; HIV-uninfected women, area of Tanzania where no malaria infection was observed
  Seroprevalence in Tanzania: 42%
IgG [2]; Mozambican pregnant women at delivery, 2003/4
  Seroprevalence 2003/4 (%): 99%
IgG [2]; Mozambican pregnant women at delivery, 2005
  Seroprevalence 2005 (%): 98%
IgG [2]; Mozambican pregnant women at delivery, 2010
  Seroprevalence 2010 (%): 93%
IgG [2]; Mozambican pregnant women at delivery, 2011
  Seroprevalence 2011 (%): 89%
IgG [2]; Mozambican pregnant women at delivery, 2012
  Seroprevalence 2012 (%): 92%
IgG [2]; seroprevalence among pregnant Spanish women never exposed to malaria
  SeroPrev PW Bcn (%): 2%
IgG [2]; seroprevalence odds ratio 2010 vs 2003/5, Mozambique, adjusted
  Decrease (OR): 0.24 (0.06; 0.93)
IgG [2]; seroprevalence odds ratio 2011/12 vs 2010, Mozambique, adjusted
  Increase (OR): 0.58 (0.29; 1.16)
IgG [3]; time to sero-negativisation, seropositive at recruitment, no infection on follow-up
  Antibody dynamics Sero-revertion weeks (95% CI): 544.49 (242.56; ∞) weeks
IgG [3]; women with P. falciparum infection on follow-up, log-linear mixed-effects model
  Antibody dynamics Time to double weeks (95% CI): 91.65 (39.61; ∞) weeks
